The text below walks through data of article PMC10284700.

The assay concerns the target wild-type full-length human FGFR1c, P11362. In words: proximity ligation assay (PLA) on L6 cells. The conditions noted are these: chain shown with the change; L6-FGFR1cWT cells cotreated with FGF23ΔHBS and soluble αKlotho; n = 6 microscope fields, mean ± SD; parent: est. 2.3; read off a plot.

Sequence of wild-type full-length human FGFR1c, P11362 (P11362 22-822): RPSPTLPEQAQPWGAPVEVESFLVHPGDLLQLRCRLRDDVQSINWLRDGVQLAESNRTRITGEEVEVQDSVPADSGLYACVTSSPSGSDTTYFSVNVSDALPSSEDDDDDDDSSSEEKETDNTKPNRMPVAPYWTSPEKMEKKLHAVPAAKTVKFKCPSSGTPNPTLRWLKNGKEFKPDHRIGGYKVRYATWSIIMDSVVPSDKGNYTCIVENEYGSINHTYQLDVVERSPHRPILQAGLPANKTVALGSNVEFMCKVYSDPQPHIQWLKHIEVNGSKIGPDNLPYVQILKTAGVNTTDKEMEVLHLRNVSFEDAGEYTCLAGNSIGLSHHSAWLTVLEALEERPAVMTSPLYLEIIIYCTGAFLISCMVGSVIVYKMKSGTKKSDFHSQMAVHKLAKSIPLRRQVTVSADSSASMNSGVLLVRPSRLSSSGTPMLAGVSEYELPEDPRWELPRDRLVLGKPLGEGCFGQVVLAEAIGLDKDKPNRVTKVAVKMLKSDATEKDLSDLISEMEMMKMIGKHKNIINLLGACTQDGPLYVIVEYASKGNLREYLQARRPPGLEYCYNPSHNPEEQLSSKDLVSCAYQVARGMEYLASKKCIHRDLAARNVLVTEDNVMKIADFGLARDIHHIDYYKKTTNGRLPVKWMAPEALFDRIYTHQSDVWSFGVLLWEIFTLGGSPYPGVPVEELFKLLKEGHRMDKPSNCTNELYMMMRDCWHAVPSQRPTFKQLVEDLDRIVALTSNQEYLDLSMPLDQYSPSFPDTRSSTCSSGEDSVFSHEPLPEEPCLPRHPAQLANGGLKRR

B1: full-length mature human FGF23 (residues Tyr25 to Ile251), Q9GZV9 R48A; R140A (protein)
chain: MLGARLRLWVCALCSVCSMSVLRAYPNASPLLGSSWGGLIHLYTATAANSYHLQIHKNGHVDGAPHQTIYSALMIRSEDAGFVVITGVMSRRYLCMDFRGNIFGSHYFDPENCRFQHQTLENGYDVYHSPQYHFLVSLGAAKRAFLPGMNPPPYSQFLSRRNEIPLIHFNTPIPRRHTRSAEDDSERDPLNVLKPRARMTPAPASCSQELPSAEDNSPMASDPLGVVRGGRVNTHAGGTGPEGCRPFAKFI
With B1, the response (positive point/cell number) turned out to be 1.2.
